Source: patent US10272050B2, “Nanoparticles and methods of use” (The Brigham and Women's Hospital, Inc., priority 2014, dated 2019)

B1: recombinant mouse interleukin 10 (protein, UniProt P18893 19-178, looked up)
Interleukin-10: SRGQYSREDNNCTHFPVGQSHMLLELRTAFSQVKTFFQTKDQLDNILLTDSLMQDFKGYLGCQALSEMIQFYLVEVMPQAEKHGPEIKEHLNSLGEKLKTLRMRLRRCHRFLPCENKSKAVEQVKSDFNKLQDQGVYKAMNEFDIFINCIEAYMMIKMKS
notes: recombinant mouse interleukin 10, Mw ~36 kDa, from R&D Systems
B2: released IL-10: IL-10 released from TNPs (obtained at 48 h post-release) (protein, UniProt P18893 19-178, looked up)
Interleukin-10: B1 Interleukin-10
modifications: released from nanoparticles

Columns and labels:
[1] = Protein encapsulation efficiency and loading content (solvent-free loading, ELISA of unloaded protein); format: physicochemical; conditions: loaded into TNPs at 4° C. without organic solvents
Description: The protein encapsulation efficiency and the loading content were determined by separation of unloaded proteins from TNPs using Amicon Ultra centrifugal filters (MWCO 100 kDa). Unloaded proteins were measured using a protein ELISA kit and Synergy HT multi-mode microplate reader (BioTek Instruments Inc., Winooski, Vt., USA) at […] absorbance.

[2] = In vitro release of proteins from TNPs in PBS; format: physicochemical; conditions: 100 rpm, 37° C.
Description: The protein-loaded nanoparticles were dispersed in 1 mL of phosphate-buffered saline solution (PBS) and subsequently incubated in a shaking incubator at 100 rpm and 37° C. At each time point, the protein released from nanoparticles was isolated using Amicon Ultra-0.5 centrifugal filters (MWCO 50 kDa) at 5,000 rpm for 2 min at 20° C. Then the protein-loaded nanoparticles were resuspended in PBS and incubated in the same manner until the last defined time point. The amount of released protein at each time point was measured at 450 nm using an ELISA kit. The measurements were done in triplicate.

[3] = mouse, in vivo, iv
Description: At 5 min, 30 min, 1 h, 2 h, 4 h, 8 h, 12 h, and 24 h post-injection, blood samples (0.5 mL) were drawn for serum protein concentration analysis. Next, the blood samples were placed at 4° C. overnight to allow the formation of a blood clot and centrifuged under 2,000×g for 15 min at 4° C. The serum samples were stored at −80° C. and analyzed using an ELISA kit. […] The AUC (area under the serum concentration-time curve) and AUMC (area under the first moment curve) were calculated using the trapezoidal rule.

[4] = test system: STAT3 and phosphorylated STAT3 (P-STAT3 at Tyr705); assay: Western blot of STAT3 and P-STAT3 in unstimulated macrophage cells; format: cell-based; conditions: 20 ng/mL, 24 h; for Total levels of STAT3: β-Actin reference
Description: To determine the bioactivity of IL-10 in unstimulated cells, macrophage cells seeded on a 6-well tissue culture plate (5×10^5 cells/well) were treated with IL-10 (native IL-10 or released IL-10 at 20 ng/mL) and incubated for 24 h at 37° C. Then the cells were washed with ice-cold PBS three times and harvested by scraping into Eppendorf tubes, followed by centrifugation at 12,000 rpm for 5 min at 4° C. For protein extraction, the cells were lysed in 200 μL of protein extraction reagent (Fisher Scientific, Pittsburgh, Pa., USA) supplemented with protease inhibitor cocktail and phosphatase inhibitor cocktail (Sigma-Aldrich), and then centrifuged at 12,000 rpm for 10 min at 4° C. to remove the nuclei. Next, protein concentration was measured using a Coomassie Plus-Bradford™ assay with bovine serum albumin as the protein standard. The cell lysates (with 30 μg of protein) were mixed with 4× Laemmli Sample Buffer (Bio-Rad), and the mixture was boiled for 7 min at 95° C. […] Then the membranes were blocked with Tris-Buffered Saline-0.1% Tween 20 (TBST) solution containing 5% BSA for 2 h at 4° C. on a shaker. The primary antibodies (1:1000 dilutions) in TBST with 3% BSA were incubated with the membranes overnight at 4° C. on a shaker. After that, the membranes were washed with TBST solution four times (each 10 min) and then incubated with secondary antibody (1:10,000 dilutions) in TBST with 3% BSA for 1 h at room temperature on a shaker. Finally, the membranes were washed with TBST solution five times and visualized using Amersham ECL prime western blotting detection reagent (GE Healthcare Life Sciences, Pittsburgh, Pa., USA). The primary and secondary antibodies used in this study were from Cell Signaling Technology (Danvers, Mass., USA) as follows: β-Actin (8H10D10) Mouse mAb, Stat3 (124H6) Mouse mAb, and Phospho-Stat3 (Tyr705) (3E2) Mouse mAb as a primary antibody, and anti-mouse IgG (HRP-linked) antibody as a secondary antibody.

[5] = test system: DNFB-induced allergic contact dermatitis; assay: DNFB-induced allergic contact dermatitis (ACD) model; format: in vivo, C57BL/6 mice; conditions: 100 μg IL-10/kg i.v. 2 h before DNFB, ear thickness at 36 h
Description: C57BL/6 mice were administered i.v. saline, TNPs, IL-10, or IL-10-loaded TNPs (100 μg IL-10/kg). At 2 h post-injection, a 0.3% v/v solution of DNFB (2,4-dinitro-fluorobenzene) in acetone was applied the mice to the dorsal and ventral aspects of ear skin. Ear thickness was measured using an engineer's micrometer (Mitutoyo) at 36 h. The change of ear thickness is calculated as the difference between the treated ear and the contralateral ear treated with acetone alone.
Ears were fixed in a 10% formalin solution, embedded in paraffin, and submitted for histological analysis by haematoxilin and eosin staining to the Harvard Rodent Histopathology Core.
For ear-skin digestion, the dorsal and ventral aspects of the ear were mechanically separated before mincing and placing into a digestion mix consisting of DMEM (Gibco) supplemented with HEPES (Invitrogen), 2% FCS, 200 μg/mL Liberase TM (Roche), 10 μg/mL DNase I (Roche), and 5 mg/mL Collagenase D (Roche). Ears were digested for 80 minutes at 37° C. in gentleMACS tubes (Miltenyi) with gentle agitation in freshly prepared digestion mix. After enzymatic digestion, the mixture was processed using a gentleMACS homogenizer (Miltenyi) in order to obtain a cell suspension, which was then filtered through a 70 μm cell strainer (BD). Cells were then resuspended in FACS buffer for analysis. […]

sIL-1Ra gene expression = assay: qPCR of sIL-1Ra in LPS-stimulated macrophage cells; format: cell-based; conditions: LPS 500 ng/mL 4 h, then IL-10 20 ng/mL 2 h
Description: (§1) Macrophage cells were seeded on a 6-well tissue culture plate (5×10^5 cells/well) and maintained for 12 h. The cells were treated with LPS (500 ng/mL) for 4 h, the medium was replaced with IL-10 solution (native IL-10 or released IL-10 at 20 ng/mL), and the cells were incubated for 2 h at 37° C. Next, the cells were washed with PBS and harvested by scraping, followed by centrifugation at 2,000 rpm for 5 min at 4° C. The isolated cell pellets were used to prepare the total RNA using the RNeasy® Mini Kit (QIAGEN, Valencia, Calif., USA) according to the manufacturer's protocol. For the preparation of cDNA, the extracted RNA solution (1 μg/5 μL) was then mixed with 0.5 μL of Oligo (dT) 15 primer (Promega, Madison, Wis., USA) and then reacted at 70° C. for 5 min using the Bio-Rad iCycler PCR Thermal Cycler (Bio-Rad Laboratories, Inc., Hercules, Calif., USA). The mixture was subsequently placed on ice for 5 min and mixed with various components to a final volume of 20 μL: nuclease-free water (5.6 μL), 10 mM dNTP mixture (Promega, 1 μL), 25 mM MgCl2 (Promega, 2.4 μL), ImProm-II™ reverse transcriptase (Promega, 1 μL), ImProm-II™ 5× reaction buffer (Promega, 4 μL), and RNasin® Plus RNase inhibitor (Promega, 0.5 μL). […] The relative gene expression levels were calculated using the ΔΔCt method and normalized to the expression of the reference gene (β-Actin). […]

[6] = test system: intracellular ROS in LPS-stimulated RAW 264.7 macrophage cells; assay: Inhibition of intracellular ROS in LPS-stimulated macrophages (DCFH2-DA); format: cell-based
Description: To analyze the inhibitory effect of IL-10 on intracellular reactive oxygen species (ROS) generated from lipopolysaccharide (LPS)-stimulated macrophage cells, RAW 264.7 macrophage cells were seeded on a 24-well tissue culture plate at a density of 2×10^4 cells per well and then allowed to grow for 12 h. The cells were pre-treated with IL-10 at various concentrations (1 to 100 ng/mL) for 2 h and 24 h at 37° C. Then the medium was replaced with LPS solution (100 ng/mL), and the cells were further incubated for 4 h and 24 h at 37° C. The cells were then washed with PBS and incubated with 10 μM ROS detection reagent (DCFH2-DA) for 90 min at 37° C. Fluorescence intensity was measured using a Synergy HT multi-mode microplate reader with ex/em 485/528 nm filter (BioTek Instruments Inc).
In order to determine the bioactive integrity of IL-10 released from or loaded into TNPs, cells seeded on a 24-well tissue culture plate (2×10^4 cells/well) were pre-treated with native IL-10, IL-10 released from TNPs (obtained at 48 h post-release), or IL-10-loaded TNPs at 50 ng/mL concentration for 24 h at 37° C. Next, the medium was replaced with LPS solution (100 ng/mL), and the cells were stimulated with LPS for 24 h at 37° C. After washing with PBS, intracellular ROS was measured using the detection method mentioned above. […]

[7] = test system: TNF-α and IL-12 gene expression; assay: qPCR of proinflammatory cytokines in LPS-stimulated macrophage cells; format: cell-based; conditions: LPS 500 ng/mL 4 h, then IL-10 20 ng/mL 2 h
Description: as §1

| Molecule | Encapsulation efficiency [1] [%] | Loading content [1] [wt %] | Release profile from TNPs [2] | Clearance [3] [mL/min/kg] | Improvement of half-life versus IL-10 alone [3] [fold] | T1/2 terminal [3] [min] | Vss [3] [L/kg] | P-STAT3 (Tyr705) level [4] | Total levels of STAT3 [4] | Ear swelling [5] | Increase of sIL-1Ra mRNA expression compared to LPS alone (sIL-1Ra gene expression) | Inhibitory effect on ROS production, dose response ([6]; IL-10 1-100 ng/mL, LPS 100 ng/mL, pre-treatment) | Reduction of TNF-α and IL-12 expression [7] | Inhibitory effect on ROS production, pre-treatment (IL-10→LPS) ([6]; 50 ng/mL IL-10 24 h, then 100 ng/mL LPS 24 h) |
| --- | --- | --- | --- | --- | --- | --- | --- | --- | --- | --- | --- | --- | --- | --- |
| lysozyme: lysozyme from chicken egg whites, model protein loaded into TNPs (1:20) | 90 | 1.8 | controlled-release kinetics up to a week | – | – | – | – | – | – | – | – | – | – | – |
| B1 | – | – | – | 32.9928 | 5.9 | 15 | 0.70727 | clear band | slightly increased | reduction of ear swelling compared to the saline-treated control | 1.5 fold | dose-dependent inhibition effect | – | – |
| B2 | – | – | – | – | – | – | – | almost identical | almost identical | – | effects identical to those of the native protein | – | ca. 2.5 fold | almost no statistical difference between the released IL-10 and native IL-10 |
